For test [1], the target named is Mamu-A2*01:02 (Chinese rhesus macaque | not stated). The test is described as follows: radioligand binding.
The target in test [2] is Mamu-B*010:01 (Chinese rhesus macaque | not stated). The test is described as follows: radioligand binding.

On to RRYQKSTEL [… (E. coli derived)], for which the half-maximal inhibitory concentration (IC50) in test [1] was 6.65 µM; in test [2] it was 291 nM.
Turning to KRVVINKDT [… (Y. enterocolitica Hsp60)], the IC50 in test [1] was > 20 µM; in test [2] it was > 20000 nM.
In the case of SRHHAFCFR [… (Aggrecan precursor p667)], the IC50 in test [1] was 2.06 µM; in test [2] it was > 20000 nM.
For EREQTLNQL [… (C. trachomatis ATP-dependent zinc protein)], the IC50 in test [1] was 13.2 µM; in test [2] it was > 20000 nM.
For DRLALLANL [… (C. trachomatis recC exodeoxyribonuclease-V g chain)], the values for the half-inhibitory concentration (IC50) in test [1] and in test [2] were 19.1 µM and > 20000 nM, respectively.
For NRAKQVIKL [… (C. trachomatis protease ATPase)], in that order: > 20 µM and 106 nM.
Take MRDHTITLL [… (C. trachomatis NADH-ubiquinone-oxidoreductase-a-chain)]: the concentration for half-maximal inhibition (IC50) in test [1] is > 20 µM; in test [2], 8 nM.

The values are drawn from PMC3633659.
